{"source": "patent US20220308072A1", "key": {"[1]": {"target": "Recombinant, his tagged full length human frataxin protein (Abcam ab95502) (human) (UniProt Q16595)", "sequence (Q16595 42-210)": "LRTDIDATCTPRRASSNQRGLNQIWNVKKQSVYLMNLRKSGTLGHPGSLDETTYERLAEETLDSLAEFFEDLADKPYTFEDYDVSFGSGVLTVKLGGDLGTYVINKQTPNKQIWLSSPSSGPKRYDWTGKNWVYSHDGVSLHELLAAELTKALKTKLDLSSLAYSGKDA", "assay": "Simoa sandwich 2-step (120 min-5 min); capture Ab-1; frataxin 667 pg/mL"}, "[2]": {"target": "Recombinant, his tagged full length human frataxin protein (Abcam ab95502) (human) (UniProt Q16595)", "assay": "Simoa sandwich 2-step (120 min-5 min); capture Ab-1; Diluent 1 + 5% NCS; frataxin 0.823 pg/mL"}, "[3]": {"target": "Recombinant, his tagged full length human frataxin protein (Abcam ab95502) (human) (UniProt Q16595)", "assay": "Simoa sandwich 2-step; capture Ab-1; 50 pM SβG; frataxin 0.686 pg/mL"}, "[4]": {"target": "Recombinant, his tagged full length human frataxin protein (Abcam ab95502) (human) (UniProt Q16595)", "assay": "Simoa sandwich 2-step (120 min-5 min); capture Ab-1; Diluent 1 + 5% NCS; frataxin 2.47 pg/mL"}, "[5]": {"target": "Recombinant, his tagged full length human frataxin protein (Abcam ab95502) (human) (UniProt Q16595)", "assay": "Simoa sandwich 2-step (120 min-5 min); capture Ab-1; Diluent 1 + 5% NCS"}, "[6]": {"target": "Recombinant, his tagged full length human frataxin protein (Abcam ab95502) (human) (UniProt Q16595)", "assay": "Simoa sandwich 2-step (120 min-5 min); capture Ab-1; Diluent 1 + 5% NCS; frataxin 0.274 pg/mL"}, "[7]": {"target": "Recombinant, his tagged full length human frataxin protein (Abcam ab95502) (human) (UniProt Q16595)", "assay": "Simoa sandwich 2-step; capture Ab-1; frataxin 55.6 pg/mL"}, "[8]": {"target": "Recombinant, his tagged full length human frataxin protein (Abcam ab95502) (human) (UniProt Q16595)", "assay": "Simoa sandwich 2-step; capture Ab-1; frataxin 0.686 pg/mL"}, "[9]": {"target": "Recombinant, his tagged full length human frataxin protein (Abcam ab95502) (human) (UniProt Q16595)", "assay": "Simoa sandwich 2-step (120 min-5 min); capture Ab-1; Diluent 1 + 10% NCS; frataxin 22.2 pg/mL"}, "[10]": {"target": "Recombinant, his tagged full length human frataxin protein (Abcam ab95502) (human) (UniProt Q16595)", "assay": "Simoa sandwich 3-step; capture Ab-5; frataxin 100 pg/mL"}, "[11]": {"target": "Recombinant, his tagged full length human frataxin protein (Abcam ab95502) (human) (UniProt Q16595)", "assay": "Simoa sandwich 2-step (120 min-5 min); capture Ab-1; Diluent 1 + 5% NCS; frataxin 1.37 pg/mL"}, "[12]": {"target": "Recombinant, his tagged full length human frataxin protein (Abcam ab95502) (human) (UniProt Q16595)", "assay": "Simoa sandwich 3-step; capture Ab-1"}, "[13]": {"target": "Recombinant, his tagged full length human frataxin protein (Abcam ab95502) (human) (UniProt Q16595)", "assay": "Simoa sandwich 2-step; capture Ab-2; frataxin 0.686 pg/mL"}, "[14]": {"target": "Recombinant, his tagged full length human frataxin protein (Abcam ab95502) (human) (UniProt Q16595)", "assay": "Simoa sandwich 2-step (120 min-5 min); capture Ab-1; frataxin 2.74 pg/mL"}, "[15]": {"target": "Recombinant, his tagged full length human frataxin protein (Abcam ab95502) (human) (UniProt Q16595)", "assay": "Simoa sandwich 3-step; capture Ab-1; frataxin 10000 pg/mL"}, "[16]": {"target": "Recombinant, his tagged full length human frataxin protein (Abcam ab95502) (human) (UniProt Q16595)", "assay": "Simoa sandwich 3-step; capture Ab-2; frataxin 1000 pg/mL"}, "[17]": {"target": "Recombinant, his tagged full length human frataxin protein (Abcam ab95502) (human) (UniProt Q16595)", "assay": "Simoa sandwich 3-step; capture Ab-4"}, "[18]": {"target": "Recombinant, his tagged full length human frataxin protein (Abcam ab95502) (human) (UniProt Q16595)", "assay": "Simoa sandwich 2-step (120 min-5 min); capture Ab-1; frataxin 74.1 pg/mL"}, "[19]": {"target": "Recombinant, his tagged full length human frataxin protein (Abcam ab95502) (human) (UniProt Q16595)", "assay": "Simoa sandwich 2-step (120 min-5 min); capture Ab-1; Diluent 1 + 10% NCS; frataxin 7.41 pg/mL"}, "[20]": {"target": "Recombinant, his tagged full length human frataxin protein (Abcam ab95502) (human) (UniProt Q16595)", "assay": "Simoa sandwich 2-step (120 min-5 min); capture Ab-1; Diluent 1 + 10% NCS"}, "[21]": {"target": "Recombinant, his tagged full length human frataxin protein (Abcam ab95502) (human) (UniProt Q16595)", "assay": "Simoa sandwich 2-step; capture Ab-2; frataxin 100 pg/mL"}, "[22]": {"target": "Recombinant, his tagged full length human frataxin protein (Abcam ab95502) (human) (UniProt Q16595)", "assay": "Simoa sandwich 2-step (120 min-5 min); capture Ab-1; Diluent 1 + 10% NCS; frataxin 0.823 pg/mL"}, "[23]": {"target": "Recombinant, his tagged full length human frataxin protein (Abcam ab95502) (human) (UniProt Q16595)", "assay": "Simoa sandwich 2-step; capture Ab-1; frataxin 1000 pg/mL"}, "[24]": {"target": "Recombinant, his tagged full length human frataxin protein (Abcam ab95502) (human) (UniProt Q16595)", "assay": "Simoa sandwich 2-step; capture Ab-2"}, "[25]": {"target": "Recombinant, his tagged full length human frataxin protein (Abcam ab95502) (human) (UniProt Q16595)", "assay": "Simoa sandwich 2-step (120 min-5 min); capture Ab-1; frataxin 8.23 pg/mL"}}, "data": [{"substance": "Ab-3, mouse monoclonal [18A5DB1] to Frataxin (Abcam ab110328) (antibody)", "values": [{"measurement": "AEB rep1", "setting": "[1]", "result": 3.57, "unit": "AEB"}, {"measurement": "AEB rep2", "setting": "[1]", "result": 3.99, "unit": "AEB"}, {"measurement": "AEB rep3", "setting": "[1]", "result": 3.61, "unit": "AEB"}, {"measurement": "Ave AEB", "setting": "[1]", "result": 3.73, "unit": "AEB"}, {"measurement": "S/B", "setting": "[1]", "result": 451}, {"measurement": "Ave AEB", "setting": "[2]", "result": 0.0324, "unit": "AEB"}, {"measurement": "S/B", "setting": "[2]", "result": 1.79}, {"measurement": "Ave AEB", "setting": "[3]", "result": 0.0421, "unit": "AEB"}, {"measurement": "S/B", "setting": "[3]", "result": 2.3}, {"measurement": "Ave AEB", "setting": "[4]", "result": 0.0609, "unit": "AEB"}, {"measurement": "S/B", "setting": "[4]", "result": 3.37}, {"measurement": "LOD", "setting": "[5]", "result": 0.268, "unit": "pg/mL"}, {"measurement": "Ave AEB", "setting": "[6]", "result": 0.0228, "unit": "AEB"}, {"measurement": "S/B", "setting": "[6]", "result": 1.26}, {"measurement": "Ave AEB", "setting": "[7]", "result": 5.52, "unit": "AEB"}, {"measurement": "S/B", "setting": "[7]", "result": 53.2}, {"measurement": "Ave AEB", "setting": "[8]", "result": 0.165, "unit": "AEB"}, {"measurement": "S/B", "setting": "[8]", "result": 1.59}, {"measurement": "Ave AEB", "setting": "[9]", "result": 0.2, "unit": "AEB"}, {"measurement": "S/B", "setting": "[9]", "result": 11}, {"measurement": "Ave AEB", "setting": "[10]", "result": 2.9, "unit": "AEB"}, {"measurement": "S/B", "setting": "[10]", "result": 15.2}, {"measurement": "Ave AEB", "setting": "[11]", "result": 0.02, "unit": "AEB"}, {"measurement": "S/B", "setting": "[11]", "result": 1.82}, {"measurement": "LOD", "setting": "[12]", "result": 1.14, "unit": "pg/mL"}, {"measurement": "Ave AEB", "setting": "[13]", "result": 0.165, "unit": "AEB"}, {"measurement": "S/B", "setting": "[13]", "result": 1.73}, {"measurement": "AEB rep1", "setting": "[14]", "result": 0.0165, "unit": "AEB"}, {"measurement": "AEB rep2", "setting": "[14]", "result": 0.0248, "unit": "AEB"}, {"measurement": "AEB rep3", "setting": "[14]", "result": 0.0202, "unit": "AEB"}, {"measurement": "Ave AEB", "setting": "[14]", "result": 0.0205, "unit": "AEB"}, {"measurement": "S/B", "setting": "[14]", "result": 2.48}, {"measurement": "Ave AEB", "setting": "[15]", "result": 28.5, "unit": "AEB"}, {"measurement": "S/B", "setting": "[15]", "result": 576}, {"measurement": "Ave AEB", "setting": "[16]", "result": 17.2, "unit": "AEB"}, {"measurement": "S/B", "setting": "[16]", "result": 388}, {"measurement": "LOD", "setting": "[17]", "result": 1.3, "unit": "pg/mL"}, {"measurement": "AEB rep1", "setting": "[18]", "result": 0.357, "unit": "AEB"}, {"measurement": "AEB rep2", "setting": "[18]", "result": 0.356, "unit": "AEB"}, {"measurement": "AEB rep3", "setting": "[18]", "result": 0.336, "unit": "AEB"}, {"measurement": "Ave AEB", "setting": "[18]", "result": 0.35, "unit": "AEB"}, {"measurement": "S/B", "setting": "[18]", "result": 42.4}, {"measurement": "Ave AEB", "setting": "[19]", "result": 0.0923, "unit": "AEB"}, {"measurement": "S/B", "setting": "[19]", "result": 5.08}, {"measurement": "LOD", "setting": "[20]", "result": 0.323, "unit": "pg/mL"}, {"measurement": "Ave AEB", "setting": "[21]", "result": 7.14, "unit": "AEB"}, {"measurement": "S/B", "setting": "[21]", "result": 88.6}, {"measurement": "Ave AEB", "setting": "[22]", "result": 0.0296, "unit": "AEB"}, {"measurement": "S/B", "setting": "[22]", "result": 1.63}, {"measurement": "Ave AEB", "setting": "[23]", "result": 30.7, "unit": "AEB"}, {"measurement": "S/B", "setting": "[23]", "result": 384}, {"measurement": "LOD", "setting": "[24]", "result": 0.27, "unit": "pg/mL"}, {"measurement": "AEB rep1", "setting": "[25]", "result": 0.0466, "unit": "AEB"}, {"measurement": "AEB rep2", "setting": "[25]", "result": 0.048, "unit": "AEB"}, {"measurement": "AEB rep3", "setting": "[25]", "result": 0.0517, "unit": "AEB"}, {"measurement": "Ave AEB", "setting": "[25]", "result": 0.0487, "unit": "AEB"}, {"measurement": "S/B", "setting": "[25]", "result": 5.91}]}]}
